Source: patent publication US7081343

Molecular target: T7-RelA, Q04206
Sequence (Q04206 whole entry): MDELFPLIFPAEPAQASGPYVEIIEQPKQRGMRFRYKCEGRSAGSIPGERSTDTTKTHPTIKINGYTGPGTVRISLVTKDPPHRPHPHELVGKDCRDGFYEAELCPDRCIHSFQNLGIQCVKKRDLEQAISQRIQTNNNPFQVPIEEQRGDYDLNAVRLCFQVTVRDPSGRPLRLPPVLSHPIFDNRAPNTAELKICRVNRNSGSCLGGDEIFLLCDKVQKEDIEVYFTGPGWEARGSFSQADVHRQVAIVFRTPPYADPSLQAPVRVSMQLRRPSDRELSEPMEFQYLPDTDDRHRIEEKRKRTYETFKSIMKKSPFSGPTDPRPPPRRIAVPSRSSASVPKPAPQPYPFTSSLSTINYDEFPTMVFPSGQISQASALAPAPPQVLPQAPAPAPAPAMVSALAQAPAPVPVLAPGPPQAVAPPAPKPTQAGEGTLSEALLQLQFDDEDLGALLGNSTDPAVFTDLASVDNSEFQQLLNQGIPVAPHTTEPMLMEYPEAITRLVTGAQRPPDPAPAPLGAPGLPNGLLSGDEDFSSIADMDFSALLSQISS

B1: P/CAF (protein)
chain: MSEAGGAGPGGCGAGAGAGAGPGALPPQPAALPPAPPQGSPCAAAAGGSGACGPATAVAAAGTAEGPGGGGSARIAVKKAQLRSAPRAKKLEKLGVYSACKAEESCKCNGWKNPNPSPTPPRADLQQIIVSLTESCRSCSHALAAHVSHLENVSEEEMNRLLGIVLDVEYLFTCVHKEEDADTKQVYFYLFKLLRKSILQRGKPVVEGSLEKKPPFEKPSIEQGVNNFVQYKFSHLPAKERQTIVELAKMFLNRINYWHLEAPSQRRLRSPNDDISGYKENYTRWLCYCNVPQFCDSLPRYETTQVFGRTLLRSVFTVMRRQLLEQARQEKDKLPLEKRTLILTHFPKFLSMLEEEVYSQNSPIWDQDFLSASSRTSQLGIQTVINPPPVAGTISYNSTSSSLEQPNAGSSSPACKASSGLEANPGEKRKMTDSHVLEEAKKPRVMGDIPMELINEVMSTITDPAAMLGPETNFLSAHSARDEAARLEERRGVIEFHVVGNSLNQKPNKKILMWLVGLQNVFSHQLPRMPKEYITRLVFDPKHKTLALIKDGRVIGGICFRMFPSQGFTEIVFCAVTSNEQVKGYGTHLMNHLKEYHIKHDILNFLTYADEYAIGYFKKQGFSKEIKIPKTKYVGYIKDYEGATLMGCELNPRIPYTEFSVIIKKQKEIIKKLIERKQAQIRKVYPGLSCFKDGVRQIPIESIPGIRETGWKPSGKEKSKEPRDPDQLYSTLKSILQQVKSHQSAWPFMEPVKRTEAPGYYEVIRFPMDLKTMSERLKNRYYVSKKLFMADLQRVFTNCKEYNPPESEYYKCANILEKFFFSKIKEAGLIDK
acetylation of T7-RelA (anti-T7 immunoprecipitation, anti-acetylated lysine blot): P/CAF failed to mediate this response
